Read-outs that look alike come from different tables or passages of the source. Values belong to the binder of their own block, whether it stands above or below them.
What was measured:
[1] = substrate: Nc1ncnc2c1ncn2[C@@H]1O[C@H](COP(=O)(O)OP(=O)(O)OP(=O)(O)O)[C@@H](O)[C@H]1O; assay: NADH-coupled steady-state ATPase assay; assay type: biochemical, Saccharomyces cerevisiae; settings: low ionic strength (21 mM), 20 mM HEPES pH 7.2, 2 mM MgCl2, 7.5 mM KCl, 20% glycerol, 298 K, 25.0 °C
Source text: NADH-coupled steady-state ATPase assay on Cin8-His (Cin8 motor domain)

[2] = molecular target: Pre-formed microtubule·Eg5 complex (bovine | human) (UniProt Q6B856); assay: stopped-flow light scattering; 0.5–5 μM Cin8-His rapidly mixed with a pre-formed microtubule·Eg5 complex (0.5 μM Eg5, 0.5 μM microtubules), low ionic strength, 298 K; amplitudes fit to Equation 6, observed rates to Equation 8
[3] = molecular target: Paclitaxel-stabilized microtubules (bovine brain αβ-tubulin) (bovine) (UniProt Q6B856); assay: co-sedimentation; 0.5 μM Cin8-His, 0–2 μM microtubules, 1 mM ATP plus ATP regeneration system, high ionic strength (88 mM); fraction bound by NADH-coupled assay; apparent constants
[4] = molecular target: Paclitaxel-stabilized microtubules (bovine brain αβ-tubulin) (bovine) (UniProt Q6B856)
[5] = molecular target: Pre-formed microtubule·Eg5 complex (bovine | human) (UniProt Q6B856); assay: stopped-flow light scattering; 0.5–5 μM Cin8-His rapidly mixed with a pre-formed microtubule·Eg5 complex (0.5 μM Eg5, 0.5 μM microtubules), low ionic strength, 298 K; amplitudes fit to Equation 6, observed rates to Equation 8; remark: listed apart in the source
[6] = molecular target: Paclitaxel-stabilized microtubules (bovine brain αβ-tubulin) (bovine) (UniProt Q6B856); assay: co-sedimentation; Cin8-His with microtubules, no added nucleotide, high ionic strength (88 mM), 298 K; Cin8 left in the supernatant measured by the NADH coupled ATPase assay; apparent constants
[7] = molecular target: Paclitaxel-stabilized microtubules (bovine brain αβ-tubulin) (bovine) (UniProt Q6B856); assay: co-sedimentation; 0.5 μM Cin8-His, 0–2 μM microtubules, 1 mM ATP plus ATP regeneration system, high ionic strength (88 mM); fraction bound by NADH-coupled assay; apparent constants; remark: listed apart in the source
[8] = molecular target: Paclitaxel-stabilized microtubules (bovine brain αβ-tubulin) (bovine) (UniProt Q6B856); assay: co-sedimentation; 0.5 μM Cin8-His, 0–2 μM microtubules, 1 mM ATP plus ATP regeneration system, low ionic strength (21 mM); fraction bound by NADH-coupled assay; apparent constants
[9] = molecular target: Paclitaxel-stabilized microtubules (bovine brain αβ-tubulin) (bovine) (UniProt Q6B856); assay: co-sedimentation; Cin8-His with microtubules, no added nucleotide, low ionic strength (21 mM), 298 K; Cin8 left in the supernatant measured by the NADH coupled ATPase assay; apparent constants
[10] = molecular target: Paclitaxel-stabilized microtubules (bovine brain αβ-tubulin) (bovine) (UniProt Q6B856); assay: co-sedimentation; 0.5 μM Cin8-His, 0–2 μM microtubules, 1 mM ATP plus ATP regeneration system, low ionic strength (21 mM); fraction bound by NADH-coupled assay; apparent constants; remark: listed apart in the source
[11] = molecular target: Paclitaxel-stabilized microtubules (bovine brain αβ-tubulin) (bovine) (UniProt Q6B856); assay: co-sedimentation; 2 μM kinesin, 0–4 μM paclitaxel-stabilised microtubules, no added nucleotide, low ionic strength (21 mM; ATPase buffer with 7.5 mM KCl), 298 K, 100,000 × g 30 min; supernatant and pellet by SDS-PAGE; apparent constants, fit to Equation 3
[12] = molecular target: Paclitaxel-stabilized microtubules (bovine brain αβ-tubulin) (bovine) (UniProt Q6B856); assay: co-sedimentation; 2 μM kinesin, 0–4 μM paclitaxel-stabilised microtubules, no added nucleotide, high ionic strength (88 mM; ATPase buffer with 75 mM KCl), 298 K, 100,000 × g 30 min; supernatant and pellet by SDS-PAGE; apparent constants, fit to Equation 3
[13] = molecular target: Paclitaxel-stabilized microtubules (bovine brain αβ-tubulin) (bovine) (UniProt Q6B856); assay: co-sedimentation; 2 μM kinesin, 0–4 μM paclitaxel-stabilised microtubules, no added nucleotide, low ionic strength (21 mM; ATPase buffer with 7.5 mM KCl), 298 K, 100,000 × g 30 min; supernatant and pellet by SDS-PAGE; apparent constants, fit to Equation 3; remark: listed apart in the source
[14] = molecular target: Paclitaxel-stabilized microtubules (bovine brain αβ-tubulin) (bovine) (UniProt Q6B856); assay: co-sedimentation; competition: 0–14 μM Cin8-trx added to 2 μM Eg5 and 2 μM microtubules, 60 min at 298 K before centrifugation, low ionic strength; fraction Eg5 bound fit to Equation 5 with Kd,Eg5 fixed; apparent
[15] = molecular target: Paclitaxel-stabilized microtubules (bovine brain αβ-tubulin) (bovine) (UniProt Q6B856); assay: co-sedimentation; 4 μM Cin8-trx, 1 μM microtubules, 20 μM paclitaxel; ATPase buffer, without glycerol, plus DTT, PIPES pH 6.9, sodium phosphate pH 7.2, 10 mM NaCl or 10 mM potassium acetate
[16] = molecular target: Paclitaxel-stabilized microtubules (bovine brain αβ-tubulin) (bovine) (UniProt Q6B856); assay: co-sedimentation; competition: 0–14 μM Cin8-trx added to 2 μM Eg5 and 2 μM microtubules, 60 min at 298 K before centrifugation, high ionic strength; fraction Eg5 bound fit to Equation 5 with Kd,Eg5 fixed; apparent
[17] = molecular target: Paclitaxel-stabilized microtubules (bovine brain αβ-tubulin) (bovine) (UniProt Q6B856); assay: co-sedimentation; 2 μM kinesin, 0–4 μM paclitaxel-stabilised microtubules, no added nucleotide, high ionic strength (88 mM; ATPase buffer with 75 mM KCl), 298 K, 100,000 × g 30 min; supernatant and pellet by SDS-PAGE; apparent constants, fit to Equation 3; remark: listed apart in the source
[18] = microtubule-stimulated (2 μM bovine brain microtubules, paclitaxel-stabilized)

B1: Cin8-His (Cin8 motor domain) (Saccharomyces cerevisiae S288C; DEL254-353/DEL32-69/INS253NNNNNSS) (protein)
chain: ISINTTGDTGITAQMNAKRYTVDKVFGPGASQDLIFDEVAGPLFQDFIKGYNCTVLVYGMTSTGKTYTMTGDEKLYNGELSDAAGIIPRVLLKLFDTLELQQNDYVVKCSFIELYNEELKDLLDSNSNGSSNTGFDGQFMKKLRIFDSSTANNTTSNSASSSRSNSRNSSPRSLNDLTPKAALLNNNNNSSSSRSHTIFTITLYKKHQDELFRISKMNLVDLAGSENINRSGALNQRAKEAGSINQSLLTLGRVINALVDKSGHIPFRESKLTRLLQDSLGGNTKTALIATISPAKVTSEETCSTLEYASKAKNIKNKPQLGSFIMKDILVKNITMELAKIKSDLLSTKSKEGIYMSQDHYKNLNSDLESYKN
notes: motor domain residues 70-535; N-terminal His6 and TEV site tags kept; expressed in E. coli B834(DE3); monomeric in solution
- Km ([1]; microtubule-stimulated): 45 ± 4 µM
- kcat ([1]; microtubule-stimulated): 0.36 ± 0.22 s^−1 site^−1

B4: Cin8-His (Cin8 motor domain) (Saccharomyces cerevisiae S288C) (protein)
chain: NEELNITVAVRCRGRNEREISMKSSVVVNVPDITGSKEISINTTGDTGITAQMNAKRYTVDKVFGPGASQDLIFDEVAGPLFQDFIKGYNCTVLVYGMTSTGKTYTMTGDEKLYNGELSDAAGIIPRVLLKLFDTLELQQNDYVVKCSFIELYNEELKDLLDSNSNGSSNTGFDGQFMKKLRIFDSSTANNTTSNSASSSRSNSRNSSPRSLNDLTPKAALLRKRLRTKSLPNTIKQQYQQQQAVNSRNNSSSNSGSTTNNASSNTNTNNGQRSSMAPNDQTNGIYIQNLQEFHITNAMEGLNLLQKGLKHRQVASTKMNDFSSRSHTIFTITLYKKHQDELFRISKMNLVDLAGSENINRSGALNQRAKEAGSINQSLLTLGRVINALVDKSGHIPFRESKLTRLLQDSLGGNTKTALIATISPAKVTSEETCSTLEYASKAKNIKNKPQLGSFIMKDILVKNIT
notes: as for B1
- Km [1, 18]: 29 ± 16 µM
- kcat [1, 18]: 0.38 ± 0.04 s^−1 site^−1

More lines, now with the values ahead:

- K0.5 (Cin8 concentration at half-maximal light-scattering amplitude) [2]: 0.27 µM
- koff [2]: 3.1 s⁻¹
- kon [2]: 1e+06 M⁻¹ s⁻¹
- Kd [3]: 1600 nM
- K0.5,MT of the microtubule-stimulated steady-state ATPase (NADH coupled assay), 21 mM ionic strength [4]: 0.08 µM
- K0.5,MT of the microtubule-stimulated steady-state ATPase (NADH coupled assay), 88 mM ionic strength [4]: 1.8 µM
- kon [5]: 1.1e+06 M⁻¹ s⁻¹
- Kd [6]: 180 nM
- stoichiometry N [6]: 3
- Kd [7]: 960 nM
- stoichiometry N [7]: 6.1
- Kd [8]: 140 nM
- stoichiometry N [8]: 3.7
- Kd [9]: 260 nM
- stoichiometry N [9]: 3.1
- Kd [10]: 110 nM
B2: Cin8-His (S. cerevisiae kinesin-5 Cin8 motor domain, residues 70–535, with N-terminal His6 and TEV cleavage tags) (domain or fragment)
chain: ISINTTGDTGITAQMNAKRYTVDKVFGPGASQDLIFDEVAGPLFQDFIKGYNCTVLVYGMTSTGKTYTMTGDEKLYNGELSDAAGIIPRVLLKLFDTLELQQNDYVVKCSFIELYNEELKDLLDSNSNGSSNTGFDGQFMKKLRIFDSSTANNTTSNSASSSRSNSRNSSPRSLNDLTPKAALLRKRLRTKSLPNTIKQQYQQQQAVNSRNNSSSNSGSTTNNASSNTNTNNGQRSSMAPNDQTNGIYIQNLQEFHITNAMEGLNLLQKGLKHRQVASTKMNDFSSRSHTIFTITLYKKHQDELFRISKMNLVDLAGSENINRSGALNQRAKEAGSINQSLLTLGRVINALVDKSGHIPFRESKLTRLLQDSLGGNTKTALIATISPAKVTSEETCSTLEYASKAKNIKNKPQLGSFIMKDILVKNITMELAKIKSDLLSTKSKEGIYMSQDHYKNLNSDLESYKN

- Kd [11]: 13 nM
- Kd [12]: 130 nM
- stoichiometry N [12]: 4
- Kd [13]: 1 nM
- stoichiometry N [13]: 5.1
- Kd [14]: 2 nM
- stoichiometry N [15]: 4
- Kd [16]: 590 nM
- stoichiometry N [17]: 3 to 5
B3: Cin8-trx (Cin8 motor domain, residues 70–535, fused to N-terminal thioredoxin (TrxA), His6, TEV cleavage and Arg9 tags) (domain or fragment)
chain: ISINTTGDTGITAQMNAKRYTVDKVFGPGASQDLIFDEVAGPLFQDFIKGYNCTVLVYGMTSTGKTYTMTGDEKLYNGELSDAAGIIPRVLLKLFDTLELQQNDYVVKCSFIELYNEELKDLLDSNSNGSSNTGFDGQFMKKLRIFDSSTANNTTSNSASSSRSNSRNSSPRSLNDLTPKAALLRKRLRTKSLPNTIKQQYQQQQAVNSRNNSSSNSGSTTNNASSNTNTNNGQRSSMAPNDQTNGIYIQNLQEFHITNAMEGLNLLQKGLKHRQVASTKMNDFSSRSHTIFTITLYKKHQDELFRISKMNLVDLAGSENINRSGALNQRAKEAGSINQSLLTLGRVINALVDKSGHIPFRESKLTRLLQDSLGGNTKTALIATISPAKVTSEETCSTLEYASKAKNIKNKPQLGSFIMKDILVKNITMELAKIKSDLLSTKSKEGIYMSQDHYKNLNSDLESYKN

From publication PMC5582858, “The yeast kinesin-5 Cin8 interacts with the microtubule in a noncanonical manner” (The Journal of Biological Chemistry, 2017)
